Measured values published in PMC12344411, “Cytosolic- and membrane-localized oxidized indole-3-acetic acid formation regulates developmental auxin transients” (Plant physiology, 2025).

Tests used:
[1] = biological target: TIR1 (Arabidopsis thaliana) (UniProt Q570C0); assay: BLI; settings: cited from earlier work
[2] = biological target: TIR1 (Arabidopsis thaliana) (UniProt Q570C0); assay: BLI; settings: cited from earlier work; remark: listed apart in the source
TIR1 = biological target: T1, TIR1 (Arabidopsis thaliana, UniProt Q570C0); assay: synthetic yeast system, TIR1-dependent degradation of YFP-IAA7 and YFP-IAA17 by flow cytometry; format: cell-based
T1 construct: with IAA7
T1 sequence (Q570C0 1-594): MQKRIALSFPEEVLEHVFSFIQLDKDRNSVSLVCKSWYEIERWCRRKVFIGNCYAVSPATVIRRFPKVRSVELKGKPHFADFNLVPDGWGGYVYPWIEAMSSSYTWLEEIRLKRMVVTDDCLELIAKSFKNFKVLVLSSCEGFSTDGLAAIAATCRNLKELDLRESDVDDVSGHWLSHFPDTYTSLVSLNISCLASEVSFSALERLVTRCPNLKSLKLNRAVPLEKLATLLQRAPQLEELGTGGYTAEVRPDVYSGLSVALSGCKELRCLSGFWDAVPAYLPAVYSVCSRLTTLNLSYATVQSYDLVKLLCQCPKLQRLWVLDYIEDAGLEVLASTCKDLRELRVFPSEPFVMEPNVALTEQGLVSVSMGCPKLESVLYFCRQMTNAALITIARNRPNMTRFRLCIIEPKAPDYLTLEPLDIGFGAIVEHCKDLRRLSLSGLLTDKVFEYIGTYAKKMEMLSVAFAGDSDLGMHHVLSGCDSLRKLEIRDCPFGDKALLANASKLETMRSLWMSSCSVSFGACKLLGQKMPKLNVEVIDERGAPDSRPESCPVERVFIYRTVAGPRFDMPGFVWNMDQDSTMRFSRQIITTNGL
T1 sequence (Q38825 1-243 partner): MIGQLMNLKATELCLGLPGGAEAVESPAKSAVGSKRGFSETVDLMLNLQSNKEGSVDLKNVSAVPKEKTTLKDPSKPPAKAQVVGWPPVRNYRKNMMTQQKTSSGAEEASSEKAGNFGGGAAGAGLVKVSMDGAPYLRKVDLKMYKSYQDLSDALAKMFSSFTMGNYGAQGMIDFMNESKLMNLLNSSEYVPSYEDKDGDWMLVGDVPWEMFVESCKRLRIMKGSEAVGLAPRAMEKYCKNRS

IAA7 = biological target: T2, IAA7 (Arabidopsis thaliana, UniProt Q38825); assay: BLI
T2 chain: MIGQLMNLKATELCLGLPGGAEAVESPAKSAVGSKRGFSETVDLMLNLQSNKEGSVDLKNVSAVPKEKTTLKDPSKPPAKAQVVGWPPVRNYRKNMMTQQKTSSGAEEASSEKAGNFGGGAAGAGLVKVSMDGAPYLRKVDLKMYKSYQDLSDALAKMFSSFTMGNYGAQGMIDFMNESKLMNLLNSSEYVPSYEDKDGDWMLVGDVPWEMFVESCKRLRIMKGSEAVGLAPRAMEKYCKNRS

For IAA7 (from UniProt Q38825), the Kd [1] is listed as 20000 nM and the Kd [2] is listed as 30 nM.

With `O=C(O)Cc1c[nH]c2ccccc12` [IAA, indole-3-acetic acid] the “synthetic yeast system, TIR1-dependent degradation of YFP-IAA7 and YFP-IAA17 by” value (TIR1) was “signals from YFP-IAA7 and YFP-IAA17 decreased rapidly upon addition of IAA”.

B1: TIR1 (protein)
chain: MQKRIALSFPEEVLEHVFSFIQLDKDRNSVSLVCKSWYEIERWCRRKVFIGNCYAVSPATVIRRFPKVRSVELKGKPHFADFNLVPDGWGGYVYPWIEAMSSSYTWLEEIRLKRMVVTDDCLELIAKSFKNFKVLVLSSCEGFSTDGLAAIAATCRNLKELDLRESDVDDVSGHWLSHFPDTYTSLVSLNISCLASEVSFSALERLVTRCPNLKSLKLNRAVPLEKLATLLQRAPQLEELGTGGYTAEVRPDVYSGLSVALSGCKELRCLSGFWDAVPAYLPAVYSVCSRLTTLNLSYATVQSYDLVKLLCQCPKLQRLWVLDYIEDAGLEVLASTCKDLRELRVFPSEPFVMEPNVALTEQGLVSVSMGCPKLESVLYFCRQMTNAALITIARNRPNMTRFRLCIIEPKAPDYLTLEPLDIGFGAIVEHCKDLRRLSLSGLLTDKVFEYIGTYAKKMEMLSVAFAGDSDLGMHHVLSGCDSLRKLEIRDCPFGDKALLANASKLETMRSLWMSSCSVSFGACKLLGQKMPKLNVEVIDERGAPDSRPESCPVERVFIYRTVAGPRFDMPGFVWNMDQDSTMRFSRQIITTNGL
modifications: oxIAA (saturating)
Work on B1 yielded a Kd (IAA7) of 200 nM.
